From PMC11240526, “Method for B Cell Receptor Enrichment in Malignant B Cells” (Cancers, 2024)

T1: CD79a (human (endogenous in Raji), UniProt P11912 33-226)
T1 construct: CD79a (Igα), signalling subunit of the B cell receptor, human, endogenous in the Raji B lymphoblastoid cell line; the text prints P11912; also called Igα; Ig-alpha; source: endogenous, Raji cells, membrane fraction solubilised in Triton X-100 or DOC lysis buffer
T1 sequence (looked up): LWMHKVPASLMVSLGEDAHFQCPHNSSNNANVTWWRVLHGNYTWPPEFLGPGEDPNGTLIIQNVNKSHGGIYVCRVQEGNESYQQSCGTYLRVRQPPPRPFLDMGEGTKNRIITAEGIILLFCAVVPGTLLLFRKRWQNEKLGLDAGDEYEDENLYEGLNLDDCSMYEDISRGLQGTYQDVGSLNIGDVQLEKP


How the values were obtained:
[1] = molecular target: CD79a (human (endogenous in Raji)) (UniProt P11912); assay: co-IP; antibody to the bait (anti-CD79a, anti-CD79b or anti-IgM) with Protein G agarose beads; Raji membrane fraction solubilised in 1% Triton X-100 lysis buffer in PBS; overnight at 4 °C; bead eluate read by Western blot, band intensities normalised to protein load
[2] = molecular target: T1, CD79a; assay: as above; conditions: partners not purified

fold enrichment in the bead eluate over input (band intensity normalised to protein load) [1] | fold enrichment in the bead eluate over input (band intensity normalised to protein load) [2] | Molecule
30 fold | – | membrane immunoglobulin M (mIgM) of Raji cells (complex)
– | ~12 fold | CD79b (natural protein, human (endogenous in Raji), UniProt P40259 29-229, looked up, CD79b (Igβ), signalling subunit of the B cell receptor, human, endogenous in the Raji B lymphoblastoid cell line; also called Igβ; Ig-beta; source: endogenous, Raji cells, membrane fraction solubilised in Triton X-100 or DOC lysis buffer) ARSEDRYRNPKGSACSRIWQSPRFIARKRGFTVKMHCYMNSASGNVSWLWKQEMDENPQQLKLEKGRMEESQNESLATLTIQGIRFEDNGIYFCQQKCNNTSEVYQGCGTELRVMGFSTLAQLKQRNTLKDGIIMIQTLLIILFIIVPIFLLLDKDDSKAGMEEDHTYEGLDIDQTATYEDIVTLRTGEVKWSVGEHPGQE
